Measurements published in the nanobody polyreactivity screen of Harvey et al. (2022).

Test: yeast display, Sf9 membrane polyspecificity reagent, FACS + sequencing; frameworks hold sequencing errors
Outline: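 Synthetic nanobody libraries on Saccharomyces cerevisiae BJ5465 were galactose-induced for 36–48 hours, stained 1 hour at 4 °C with 10% biotinylated, detergent-solubilized Sf9 membrane reagent and enriched on streptavidin microbeads. FACS then separated cells into low and high (top ~1%) gates by anti-HA (expression) and streptavidin (reagent binding) fluorescence. Genes were colony-PCR amplified, MiSeq 2 × 250 sequenced and CDR-length filtered. A clone's polyreactivity label is that of its gate of origin.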

Sequence	polyreactivity (PSR sort gate)
QVQLVESGGGLVHAGGSLRLSCAASGRTIGYYAMGWYRQAPGKERELVAAISWSGGSTYYADSVKGRFTISRDIAKNTVYLQMNSLKPEATAVYYCAAKYSFRAAHYYYWGQGTQVTVSS	high polyreactivity
QVQLVESGGGLVHAGGSLRLSCAASGRTLWGYVMGWYREAPGKERELVAVITASGGSTYYADSVNGRFTISRDNAKNTVYLQMYSLKPEDTAVYYCNADSRAERYFWSFVENDYWVQGTQVTVSS	low polyreactivity
QVQLVESGGGLVHAGGSLRLSCAASGRTLWYYTMGWYRQAPGKEMELVADITRGTSTNYADSVKGRFTISRDNAKNTVYLQMNILKPEDTAVYYCNRAHGRSRYSRDYDSWGQGTQVTVSS	low polyreactivity
QVQLVESGGGLVHAGGSLRLSCAASGSIFAYYAMGWYRQAPGKERELVARITYSTDGTYYADSVKGRFTISRDNAKNTVYLQMNSLKPEDTAVYFCAVDTWWGFKRYKFDYWGQGTQVTVSS	low polyreactivity
QVQLVESGGGLVHAGGSLRLSCAASGSIFGIYTMGWYRQAPGKERELVARINLSGGITYYADSVKGRFKISRDNAKNTVYLQMNSLKPEDTAVYYCNARTVNFPYDYWGQGTQVTVSS	low polyreactivity
QVQLVESGGGLVHAGGSLRLSCAASGSIFGVNARGWYRPAPGKERELVAAISSTGSRTYYADSVQGRFTISRDNAKNTVYLQRNSLKPEETAVYYCAAYLTRYGAYYWGQGTQVTVSS	high polyreactivity
QVQLVESGGGLVHAGGSLRLSCAASGSIFGWYVMGWYRQAPGKERELVAAISSVGSTYYADSVKGRFTISRDNAKNTVCLQMNSLKPEDTAVYYCAKLRYPYLFWDDSEYWGQGTQVTVSS	low polyreactivity
QVQLVESGGGLVHAGGSLRLSCAASGSIFHFNAMGWYRQAPGKERELVARISIGGGSTYYADSVKGRFTISRDNAKNTVYFQMNSLKPEDTAVYSCAVDGSPRNKYDYWGQGTQVTVSS	high polyreactivity
QVQLVESGGGLVHAGGSLRLSCAASGSTFFPYDMGWYRPEPGTERYFVAGISSDGGTSYADSVKGRFTISRDNAKNTVYLQMNSMKPEDTAVYDCAALQADGDRYPEFDLMDYWGQGSQVTVSS	low polyreactivity
QVQLVESGGGLVHAGGSLRLSCAASGSTFSRYAMGWYRQAPWKERELVAAISWSGASTYYADSVKWRFTISRDNAKNTVYLQMNSLKPEDTSVYYCAKVARQNWFRYNYDYWGQGTQVTVSS	high polyreactivity
QVQLVESGGGLVHAGGSLRLSCAASGSTFVRNAMGWYRQAPGKERELVAAITSRGGSTYYADSVKGRFTISRDNAKNTVYLQMNSLKPEDTAVYYCAARFGVKRGQYDYWGQGTQVTVSS	high polyreactivity
QVQLVESGGGLVHAGGSLRLSCAASGTIFYRNAMGWYRQAPGKERELVAAITSRGGRTYYADSVKGRFTISRDNAKNTVYLQMNSLKPEDTAVYDCNKRYVYSTSDYDYWGQGTQVTVSS	high polyreactivity
QVQLVESGGGLVHAGGSLRLSCAASGYIFTRNMGWYRQAPGKERELVAAITWSGGSTYYADSVKGRFTISRDNAKNTVYLQINSLKPEDTAVYYCAADYGWSVGRRYYYWGQGTQVTVSS	high polyreactivity
QVQLVESGGGLVHAGGSLRLSCAASGYIIGYYTMGWYRQAPGKERELVATIRSGGSTYYADSVKGRFTISRDNANNSVYLQINSLKPEDTAVYYCAKRVRRISEYGYWGQGTHVTVSS	high polyreactivity
QVQLVESGGGLVHAGGSLRLSCAASGYTFGNNAMGWYIQAPGKERELVASIRTNGGTTYYADSVKGRFTISRDNAKNTVYLQMNSLKPEDTAVYYCNAYRGYEYDYWGQGTQVTVSS	low polyreactivity
QVQLVESGGGLVHAGGSLRLSCAASVSTFLFYAMGWYRQAPGKEREFVAAITWSGGSTYYADSVKGRFTISRDNAKNTVYLQMNSLKPEDTAVYYCNGYYVPTTGREFYFAFYYWGQGTQVTVSS	low polyreactivity

Sequence	polyreactivity (PSR sort gate)
QVQLVESGGGLVHAGGSLRLSCAAYGRTFKYNAMGWNRQAPGKERELVAAISSRGGSTYYADSVKGRFTISRDNAKNTVYLQMNSLKPEDTAVYYCAIATSSSEYGYDYWGQGTQVTVSS	high polyreactivity
QVQLVESGGGLVHAGGSLRLSCADSGFTFGAYAMGWYRQAPGKERELVATITNSGRTYYADSVKGRFTISRDNAKNTVYLQMNSLNPEDTAVYYCAAQPDGQAMEHWGQGTQVTVSS	low polyreactivity
QVQLVESGGGLVHAGGSLRLSCAPSAFTFAYYAMGWYRQAPGKEREFVAAITKGGGSTNYADSVKGRFTISRDNAKNTVYLQMYSLKPEDTAVYYSNADYFVWYIGRVFSRYGYWGQGTQVTVSS	low polyreactivity
QVQLVESGGGLVHAGGSLRLSCAPSGSIFGPYAMGWYIQAPGKERELVAAIRSGGSTNYADSVKGRFTISRDNAKNTVYLQMNSLKPDDTSVYYWAGEYWGYPYDYWGQGTQVTVSS	low polyreactivity
QVQLVESGGGLVHAGGSLRLSCASSGSIFIRNAMGWYRQAPGKERELVASISRSGASTRYADSVKGLFTISRDNAKNTVYLQMNSLNPEDTAVYYCNDVIRRYFVPSSYDYWGQGTQVTVSS	high polyreactivity
QVQLVESGGGLVHAGGSLRLSCPADGSTFVLNAIGWYRQAPGKERQLVAGISYGTGSTYYADSVKGRFTISRDHAKNTVYLQMNSLKPEDTAVYYCATDFDGYSIGMYYWGQGNQVTVSS	low polyreactivity
QVQLVESGGGLVHAGGSLRLSCSASGYTFAYNAMGWYRQAPGKERELVAAITSRAGSTHYADSVKGRFTISRDNAKNTVYLQMNSLKPEDTAVYYCAAKRYNRLRSYRYSDREDYWGQGTQVSVSS	high polyreactivity
QVQLVESGGGLVHAGGSLRLSCSASRFIFDKNSMGWYIQAPGKERELVAAISYGDGRTYYADSVKGRFTISRDNAKNTVYLHMNSLKPEDTEVYYCNTDAKRYIRIYWGQGTQVTVSS	high polyreactivity
QVQLVESGGGLVHAGGSLSLSCAASGSTFKDYAMGWYRQAPGKERELVAAISKGATRTYYADSVKGRFTISRDNAKITVYLQINSLKPEDTAVYYCAADRLKFRGEYDYWGQGSQVTVSS	high polyreactivity
QVQLVESGGGLVHAGRSLLLSCAASGRTYRLDAMGWYRQSPGKERELVAAITRGGRTNYADSVKGRFTISRDNAKNTFYLQMNSLKPEDTAVYYCADRYVERPTDYYYWGQGTQVTVSS	low polyreactivity
QVQLVESGGGLVHAGVSLRLSCAASGIIFAHYAKGWYRQAPGKERELVAAISSSGATTYYADSVKGRFTISRDNAKNTVYLQMNSLKPEDTAVYYCNTETYHVRRLFDYWGQGTQVTVSS	low polyreactivity
QVQLVESGGGLVHGGGSLRLSCAASGSILHYNTMGWYRQAPGKEREFVASISYSGGSTYYADSVKGRFTISRDNAKNTVYLQMNSLKPEDTAVYYCATEGMDFWFIYYYWGQGTQVTVSS	low polyreactivity
QVQLVESGGGLVHPGGSLRLSCDASGLILDGYAMGWYRQAPGKERELVAAITRSGGRTYYADSVKGRFTISRDNAKNTVNLQKNRQKPVDTAVYHSAALGWSGRYRYDYWGQGTQVTVSS	high polyreactivity
QVQLVESGGGLVKAGGILSLSCAASGRTFAFYGMGSYRQAPGKERELVATIRGTGGSTYYADSVKGRFTISRDNAKNTVYLQMNSLKPEDTAVYYCAAVNRRYPRYDYWGLGTQVTVSS	high polyreactivity
QVQLVESGGGLVKAGGSLRLICAAYGRIFALYAMGWYRHAPGKERELVAAINNGASTNYADSVKWRFTISRDNAKNTVYVQMNSLKPEDTAVYYCAVRAARSGQRFYSWGQGTQVTVSS	high polyreactivity
QVQLVESGGGLVKAGGSLRLRCAASGITFRYNAMGWYRQAPGKERELVAAITSSGGRTYYADSVKGRFTISRDNAKNTVYLQMNSLKPEDTAVYYCAARTRYRKEYDYWGQGTQVTVSS	high polyreactivity
